{
  "source": "paper PMC7954794",
  "about": "“Protein context shapes the specificity of SH3 domain-mediated interactions in vivo” (Nature Communications, 2021)",
  "molecules": {"B1": {"name": "YNL098C (protein, UniProt P01120 2-319, looked up)", "Ras-like protein 2": "PLNKSNIREYKLVVVGGGGVGKSALTIQLTQSHFVDEYDPTIEDSYRKQVVIDDEVSILDILDTAGQEEYSAMREQYMRNGEGFLLVYSITSKSSLDELMTYYQQILRVKDTDYVPIVVVGNKSDLENEKQVSYQDGLNMAKQMNAPFLETSAKQAINVEEAFYTLARLVRDEGGKYNKTLTENDNSKQTSQDTKGSGANSVPRNSGGHRKMSNAANGKNVNSSTTVVNARNASIESKTGLAGNQATNGKTQTDRTNIDNSTGQAGQANAQSANTVNNRVNNNSKAGQVSNAKQARKQQAAPGGNTSEASKSGSGGCC"}, "B2": {"name": "YNL255C (protein, UniProt P53849 1-153, looked up)", "Zinc finger protein GIS2": "MSQKACYVCGKIGHLAEDCDSERLCYNCNKPGHVQTDCTMPRTVEFKQCYNCGETGHVRSECTVQRCFNCNQTGHISRECPEPKKTSRFSKVSCYKCGGPNHMAKDCMKEDGISGLKCYTCGQAGHMSRDCQNDRLCYNCNETGHISKDCPKA"}, "B3": {"name": "YJR083C (protein, UniProt P47129 1-309, looked up)", "Assembly-complementing factor …": "MSEDQRVISQPIELHKLSIVDKHSQGQQQQPHQKQHEVQPESKSPRVTTPLKPKRLAIPISSPQRSTTNQSPVSDHASPISTDQDLIYKLAAKHREINELSFKLEVAQKELKQLELQFKDTLPRNGQQKLGNQNPSEYLSTFTKRIQQTFVDVNNSPNMLKGKKSINDFFSKPNNNVNSNINNTLPNRKPNPPPNRSQRMQNIAPSRSSESTPTSGPPLLPPRNTMKNANTTATAGENTPFLQRILNKFNQMNMEEDEFDDLLEKRKSKKDHYYIKENLGYEYDEVRSEDEDDEEFEPMGDIPVHLFKR"}, "B4": {"name": "YNL094W (protein, UniProt P53933 1-587, looked up)", "Phosphatidate phosphatase APP1": "MNSQGYDESSSSTAATSGPTSGDPRMGKKQRFMNLIRTTKDVYIPNLTSSISQKTMDGIRSTTNSFEGYNDLPMELPHNTTITYFPTYTTTNLVDPDGLSAPRKDFETTVRCAVSYPGNPTSRRNRWLLSLCKQYLRTGTAEADVAPVVPPHLEEDSGDLNDSQSSIESSLSSKSENRYSHMGIQEEDVLNERIQGFLSKKVPNTPVVVDLLPKDKLRGDTASFFGTTDSYGNLLIKAETDFLPSKINITLDTPIEGHADPISETFPANYVSPYGIGLISDIDDTIKHTGVTGDRRSMFRNVFIHDVQSWVIDGVPLWYKTLHDVADVDFFYVSNSPIQTFTLLKQYICANFPPGPIFLKQYSGNFFSTIMTSSANRKIQPIANILKDFPKKKFILVGDSGEHDLEAYTTTALQFPNQILAIYIRCCSNSMSDVPSHDEEVMNEVNNIIELQQRPMQMTKSTVRTRRRPPPPPIPSTQKPSLTEEQTESIRMSRRNKDENNAKRVAPPPLPNRQLPNLDANTYYVPSSQNDYGMYGAFMDKKADEWKRRVMDSIQKLSNQDTTLMFFSDPALSLEDSIRRIREKYSN"}, "B5": {"name": "YNL020C (protein, UniProt P53974 1-638, looked up)", "Actin-regulating kinase 1": "MNQPQIGTYNVGTQLTVGSHQVEIIKYLTSGGFAQVYSALINPPDPHSNSSVACLKRVIVPDKPSLNTLRAEVDAMRLLKNNRYVVSYIDSHAAKAMLHNGSYEVFVLMEYCERGGLIDFMNTRLQNRLHEFEILQIMSQVTQGVAAMHALQPPLIHRDIKIENVLISANNEYKLCDFGSVCGIIRPPRNSQELSYVQQDILKNTTAQYRSPEMIDTFRGLPIDEKSDIWALGIFLYKLCYYTTPFEKGGDLAILSGKFEFPLYPNYSEQLKGLIRDILVQDPRHRPNVYQLLKRISIMQNVPCPINDIQVVQAPSSHLNLTELHQLSATQNILSLNSPTTMENTMPNATFQISMADNTTTAQMHPNRKPSQIAYDASFSNSAKGSQPLFDKSQNMYHALDPPLVEPLASSVSNNDNELKANSATKLKQAIVSEAHTFRQNNSIDFPLQNIIPQYEDSSSSSDESYSGDVDELKKTRSLGSYSTRGNIKKNQSVKESLTSSSLPGTSFTPTSTKVNLKHENSPFKSTFVNTIDNSKDDLNKPSYEDLDVSKQNLKNSIQQRMIDKLNSSEESFNARKMSKVKLHEKGEIDKPTMLKSSGPISKDKKTKPTPPPKPSHLKPKPPPKPLLLAGRKLSLDK"}, "B6": {"name": "YJL155C (protein, UniProt P32604 1-452, looked up)", "Fructose-2,6-bisphosphatase": "MGYSTISNDNDIKVCVIMVGLPARGKSFISQKIIRYLSWLSIKAKCFNVGNYRRDVSGNVPMDAEFFNFENTDNFKLRELAAQNAIKDIVNFFTKEDGSVAVFDATNSTRKRRKWLKDICEKNNIQPMFLESWSNDHELIINNAKDIGSTSPDYENSEPHVAEADFLERIRQYERFYEPLDPQKDKDMTFIKLVNIIEEVVINKIRTYLESRIVFYVMNIRPKPKYIWLSRHGESIYNVEKKIGGDSSLSERGFQYAKKLEQLVKESAGEINLTVWTSTLKRTQQTANYLPYKKLQWKALDELDAGVCDGMTYEEIEKEYPEDFKARDNDKYEYRYRGGESYRDVVIRLEPVIMELERQENVLIITHQAVLRCIYAYFMNVPQEESPWMSIPLHTLIKLEPRAYGTKVTKIKANIPAVSTYKEKGTSQVGELSQSSTKLHQLLNDSPLEDKF"}, "B7": {"name": "YMR216C (protein, UniProt Q03656 1-742, looked up)", "Serine/threonine-protein …": "MGSSINYPGFVTKSAHLADTSTDASISCEEATSSQEAKKNFFQRDYNMMKKAPAPTKSKLSLALQTSKSSSSANGTVQEDTSSKTEDFSTKSIKKKPDSGVESHVSIQSDSGPQSDSDLDSDSSISSCDERNEESLKDYRPGGYHPAFKGEPYKDARYILVRKLGWGHFSTVWLAKDMVNNTHVAMKIVRGDKVYTEAAEDEIKLLQRVNDADNTKEDSMGANHILKLLDHFNHKGPNGVHVVMVFEVLGENLLALIKKYEHRGIPLIYVKQISKQLLLGLDYMHRRCGIIHTDIKPENVLMEIGDVEGIVQMVEALDKQKREAKRLQRHVSRSSDITANDSSDEKWAECQTSMPCGSSSNSKSRSIEKDLSKRCFRRPRRHTIITGSQPLPSPISSSNFFEMRAHFCGSSHNSFSSVSGNRNIPSSINNNSINNGIGIKNSNNSFLNSVPHSVTRMFINEDSNDNNNNDNSKNKNNNNNNSNNNNNEDIMNTPLHEEQLADSLSTFDISNISQSSDTNGPYISNTMDSNSNVSTDINSPENLIQIKIADLGNACWYDEHYTNSIQTREYRSPEVLLGAPWGCGADIWSTACLIFELITGDFLFEPDEGHSYTKDDDHIAQIIELLGELPSYLLRNGKYTRTFFNSRGLLRNISKLKFWPLEDVLTEKYKFSKDEAKEISDFLSPMLQLDPRKRADAGGLVNHPWLKDTLGMEEIRVPDRELYGSGSDIPGWFEEVRDHKRH"}, "B8": {"name": "YLR330W (protein, UniProt Q12114 1-671, looked up)", "Chitin biosynthesis protein …": "MSSVDVLLTVGKLDASLALLTTQDHHVIEFPTVLLPENVKAGSIIKMQVSQNLEEEKKQRNHFKSIQAKILEKYGTHKPESPVLKIVNVTQTSCVLAWDPLKLGSAKLKSLILYRKGIRSMVIPNPFKVTTTKISGLSVDTPYEFQLKLITTSGTLWSEKVILRTHKMTDMSGITVCLGPLDPLKEISDLQISQCLSHIGARPLQRHVAIDTTHFVCNDLDNEESNEELIRAKHNNIPIVRPEWVRACEVEKRIVGVRGFYLDADQSILKNYTFPPVNEEELSYSKENEPVAEVADENKMPEDTTDVEQVASPNDNESNPSEAKEQGEKSGHETAPVSPVEDPLHASTALENETTIETVNPSVRSLKSEPVGTPNIEENKADSSAEAVVEEPNEAVAESSPNEEATGQKSEDTDTHSNEQADNGFVQTEEVAENNITTESAGENNEPADDAAMEFGRPEAEIETPEVNESIEDANEPAEDSNEPVEDSNKPVKDSNKPVEDSNKPVEDSNKPVEDSNKPVEDANEPVEDTSEPVEDAGEPVQETNEFTTDIASPRHQEEDIELEAEPKDATESVAVEPSNEDVKPEEKGSEAEDDINNVSKEAASGESTTHQKTEASASLESSAVTEEQETTEAEVNTDDVLSTKEAKKNTGNSNSNKKKNKKNKKKGKKK"}, "B9": {"name": "YBR130C (protein, UniProt P38272 1-425, looked up)", "SWI5-dependent HO expression …": "MSDQDNTQTSSSKLAPHHNIFMANLESSPTKDRNTSSQNASSSRVIESLHDQIDMLTKTNLQLTTQSQNLLSKLELAQSKESKLLENLNLLKNENENLNSIFERKNKKLKELEKDYSELSNRYNEQKEKMDQLSKLAKNSSAIEQSCSEKLQNMEVNYNSLLESQNLYRDHYSDEISKLNEKIGLLELELSNQNLNYGSDTSSNSDIELNLNKFNDSVKDLKSLETEKDSKLSKIITHSLDELNLQSWLNLYQTNENLISTFAEKMDLKDVLKRNDEKISNKGAVVQTLKKNVQTQVESNNADALSSNNAQDMLPIKMVKLRKTPNTNDSSSNGNSSNNKRRSFYTASPLLSSGSIPKSASPVLPGVKRTASVRKPSSSSSKTNVTHNNDPSTSPTISVPPGVTRTVSSTHKKKGNSMVVHGAQS"}, "B10": {"name": "YOR284W (protein, UniProt Q12134 1-243, looked up)", "Protein HUA2": "MQQTKFGKMYLDHDSVVEYSEDEIVEADRITLGYKKRLSMIENQMRHLLEDFSLDVQQIEPILADLQKYYDAFLQLLQKRNKSLQCKRSTHQPVPSPMNSQTSTNAKVNLSGKLMKFQLNSVQKFDEENILRILQNKIEFEHYFQIDKGKKQKVLLLAVYQCLNGPTRLHKVLNIEGIIHNNSIRTILGKQVSSSKWTVFLYDVKLVLLAHRQDVPNLETSKMIVRYGDLFPCALYFKDHTAY"}, "B11": {"name": "YGL099W (protein, UniProt P53145 1-640, looked up)", "Large subunit GTPase 1": "MPPKEAPKKWKAPKGPKPTHRKNKNKLELGRAIKYARQKENAIEYLPDGEMRFTTDKHEANWVKLRSVTQESALDEFLSTAALADKDFTADRHSNVKIIRMDSGNDSATSQGFSMTNEQRGNLNAKQRALAKDLIVPRRPEWNEGMSKFQLDRQEKEAFLEWRRKLAHLQESNEDLLLTPFERNIEVWKQLWRVVERSDLVVQIVDARNPLLFRSVDLERYVKESDDRKANLLLVNKADLLTKKQRIAWAKYFISKNISFTFYSALRANQLLEKQKEMGEDYREQDFEEADKEGFDADEKVMEKVKILSIDQLEELFLSKAPNEPLLPPLPGQPPLINIGLVGYPNVGKSSTINSLVGAKKVSVSSTPGKTKHFQTIKLSDSVMLCDCPGLVFPNFAYNKGELVCNGVLPIDQLRDYIGPAGLVAERIPKYYIEAIYGIHIQTKSRDEGGNGDIPTAQELLVAYARARGYMTQGYGSADEPRASRYILKDYVNGKLLYVNPPPHLEDDTPYTREECEEFNKDLYVFDRLPDTRKEQVQNAAKAKGIDIVDLARDLNQLTFSAHTGGDTQKEAKSVTHGGKQAALYNAAEDLDRDFFKMNNVEGRLSTPFHKVQNSSAGKRHNKKNKSKNAKSKVFSIENN"}},
  "data": [
    {"system": "ABP1", "assay": "DHFR-PCA on solid medium, bait ABP1 (Fig. 1B)", "format": "cell-based, Saccharomyces cerevisiae", "settings": "bait ABP1, label = prey; 2-4 replicates", "from_the_text": "(§1) Supplement 41467_2021_21873_MOESM8_ESM.xlsx, sheet \"Fig1B\" | column: medsize; medrep; Ratio; Score", "values": [
      {"molecule": "B1", "medrep (log2 median colony size normalized to plate background, PCA score)": 3.322},
      {"molecule": "B2", "medrep (log2 median colony size normalized to plate background, PCA score)": 2.801},
      {"molecule": "B3", "medrep (log2 median colony size normalized to plate background, PCA score)": 1.804},
      {"molecule": "B4", "medrep (log2 median colony size normalized to plate background, PCA score)": 1.857},
      {"molecule": "B5", "medrep (log2 median colony size normalized to plate background, PCA score)": 4.233},
      {"molecule": "B6", "medrep (log2 median colony size normalized to plate background, PCA score)": 1.596},
      {"molecule": "B7", "medrep (log2 median colony size normalized to plate background, PCA score)": 1.64},
      {"molecule": "B8", "medrep (log2 median colony size normalized to plate background, PCA score)": 3.386},
      {"molecule": "B9", "medrep (log2 median colony size normalized to plate background, PCA score)": 2.63},
      {"molecule": "B10", "medrep (log2 median colony size normalized to plate background, PCA score)": 3.262},
      {"molecule": "B11", "medrep (log2 median colony size normalized to plate background, PCA score)": 1.414}
    ]},
    {"system": "ABP1", "assay": "DHFR-PCA on solid medium, bait ABP1 (Fig. 1B)", "format": "cell-based, Saccharomyces cerevisiae", "settings": "bait ABP1, label = prey; only significant differences showed; PPIs completely lost have a ratio of 0.1 and the gained PPIs 2.5", "from_the_text": "as §1", "values": [
      {"molecule": "B3", "Ratio (SH3-deleted/WT medrep)": 0.1},
      {"molecule": "B4", "Ratio (SH3-deleted/WT medrep)": 0.1},
      {"molecule": "B10", "Ratio (SH3-deleted/WT medrep)": 0.1},
      {"molecule": "B11", "Ratio (SH3-deleted/WT medrep)": 0.1}
    ]}
  ]
}
